Test results taken from the supplement of paper PMC9170038.

System: MS2 coat protein
Test: apparent KD of MS2 coat protein; designed switch direction (-1 OFF switch, 1 ON switch): -1; higher = weaker reporter binding
Outline: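 Three titration conditions were used: no input, 200 uM small-molecule ligand, and an oligonucleotide input. In each, SNAP-549-labelled MS2 coat protein was raised from 0.7 or 1.5 nM, doubling, to 3 µM over designed RNA switches transcribed on Illumina chips by stalled E. coli RNA polymerase. Curve fits of normalised cluster fluorescence gave values whose per-design median over clusters is the apparent KD.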

[1] = Eterna round: R95, input ligand: microRNA oligo, concentration not stated
[2] = input ligand: microRNA oligo, concentration not stated
[3] = Eterna round: R95, input ligand: FMN 200 uM
[4] = Eterna round: R95, input ligand: none

Sequence	apparent KD of MS2 coat protein [1]	apparent KD of MS2 coat protein (input ligand: FMN 200 uM)	apparent KD of MS2 coat protein (input ligand: none)	also measured
UAGAUGUGAGGAUAUGGUAAAGAUAGAAUGAUGAAAGAACUCCAGAAGGCACAUGAGGAUCACCCAUGUAGAUG [Mat - Exclusion 4 - Mod of JL - D29] (puzzle: Exclusion 4)	22.3 nM			
UAAUAUCUGUAGGAUAUCAGUGGAGCACACGUAUGAGAAGGGCAGACAUGAGGAUCACCCAUGUAUAGGGUCCG [BotMod 5 - Jieux - Exclusion 6] (Eterna round: R97, puzzle: Exclusion 6)		38.7 nM	29.3 nM	
UUUUAAUAUGAAGGAUAUACUUAACAUGAGGAUCACCCAUGUGGUGUUGUGAGUGAGUGAGUUUAGUAGAAGGUCAAUUCUUUU [JMF's solution 89] (Eterna round: R96, puzzle: Exclusion NG 2)		563 nM	366 nM	apparent KD of MS2 coat protein [2]: 442 nM
CCCAUGUCAGGAUAUUAGAUACUGCCGCAAAACAAAGGCAUUGAGAAGGGACAUGAGGAUCACCCAUGUAAAAC [Soraxerila] (Eterna round: R97, puzzle: Exclusion 4)		112 nM	326 nM	
UGUGUAACGGAGGAUAUAGGACUUCAACGAAGACUAGAAGGCCGAACAUGAGGAUCACCCAUGUGGUCCUCCGU [Dicesoqu] (puzzle: Exclusion 6)	13.2 nM			
ACCAGAAUAGGAUAUAACGAAAAGGACAUGAGGAUCACCCAUGUGACUACUAUUCCCUUGUUAGAAGGAUUGCGGG [Eternabot (L2) Solution 48] (Eterna round: R97, puzzle: Exclusion 5)		32 nM	24.9 nM	
CGGUGCUGAGGAUAUACAUGAGGAUCACCCAUGUGUUCUUGCUAGAAAACUGGCAGAUGUAGAAGGCGGUACUG [Mat - Exclusion 3 - Mod of JL D98] (puzzle: Exclusion 3)	35.4 nM			apparent KD of MS2 coat protein [3]: 285 nM; apparent KD of MS2 coat protein [4]: 36.6 nM
UUAAAUCAUGUAGGAUAUGCGUGGCAAAGCUAUGCAGAAGGACAUGAGGAUCACCCAUGUUCUAGCGUCUGCGUACAGAUGCUA [Mat - Exclusion NG 1 - Mod of JL - D77] (Eterna round: R96, puzzle: Exclusion NG 1)		249 nM	42.6 nM	apparent KD of MS2 coat protein [2]: 34.9 nM
UUCCUACAUGAGGAUCACCCAUGUCAGGAUAUAUAAAACGCUCUGGUAAUAGAGCAAGAUAGAAGGGAUUGGGA [Beeratve] (Eterna round: R97, puzzle: Exclusion 1)		14.6 nM	13.3 nM	
GGCAAUAUGUAGGAUAUCGUAUCGGAAACGAUACGAGAAGGGCAAACAUGAGGAUCACCCAUGUUCCUUAAGCC [Fiskers Ex 6 - 10] (puzzle: Exclusion 6)	13.5 nM			
AAUAACAGAGGAUAUACUGUUUUAUGUGUUUGUUGUUUUAAACAUGAGGAUCACCCAUGUAGAAGGCUGAGUAA [JMF 34] (puzzle: Exclusion 2)	21 nM			
CUGAGCUGAGGAUAUACAUGAGGAUCACCCAUGUGUUAGAGCUUGCGUACAGGCAGAUGUAGAAGGCAGUUCGG [JL-ex3-3.33 Brourd mod] (puzzle: Exclusion 3)	14.5 nM			
AAUAACAAGCAAGAUCCUAACAUGAGGAUCACCCAUGUGCUCGUCUUGUAAAGUACUAUCACGAAAGUGAUAGUACA [Sensor 3, v1 - 48] (puzzle: Sensor v3, turn-off variant 1)	723 nM			apparent KD of MS2 coat protein [3]: 20 nM; apparent KD of MS2 coat protein [4]: 22.1 nM
GAGUUAGCGUGAGGAAUAUACAUGAGGAUCACCCAUGUUAGCUAAUAUAUUGCUCGUCUUAUAACAACAAUUAACUG [Mod JX-Electric-eye] (Eterna round: R97, puzzle: Sensor, turn-off variant 1)		14.2 nM	15.9 nM	
UCAUGUUUAGAGGAUAUGAUUACUCUAGAGUGAUCAGAAGGCUAGACAUGAGGAUCACCCAUGUCAGAACAUGC [Exclusion 6 - B - 17:b] (puzzle: Exclusion 6)	24.7 nM			apparent KD of MS2 coat protein [3]: 17.7 nM; apparent KD of MS2 coat protein [4]: 31.9 nM
AUAAAUGAUGAGGAUAUCACUAGCGAUAGCUAGUGAGAAGGCAUCACAUGAGGAUCACCCAUGUGAUCCAAUAA [Mod6 Ex6/6-A4 by Brourd] (Eterna round: R97, puzzle: Exclusion 6)		479 nM	359 nM	
AGAUCACAUGAGGAUCACCCAUGUGAGGAUAUGCUUAAACCGUUGAACCCGGUUUGAGGCAGAAGGUGCGAGGG [Eternabot (L2) Solution 37] (Eterna round: R97, puzzle: Exclusion 1)		29.9 nM	21.3 nM	
AAUAAGUGAGGAUAUACGUCUGGACCCGGGAGGGCUAUAUAACAUGAGGAUCACCCAUGUAGAAGGCACAAUAA [Excls2-IV] (puzzle: Exclusion 2)	16.2 nM			
CUCCGACAUGAGGAUCACCCAUGUGAGGAUAUGUAGCCCAGUUGGACAACUCGAGGUAGCAGAAGGCACAUGCC [Eternabot (L2) Solution 64] (Eterna round: R97, puzzle: Exclusion 1)		57.6 nM	27 nM	
AUCAGCUCGUCAGGAUAUACAUGAGGAUCACCCAUGUGGUCAAUAGCAGCUUCGGCUGCAUACAUGUAGAAGGGACGAGCUGAU [ENG2/7-B2] (Eterna round: R96, puzzle: Exclusion NG 2)		28.4 nM	101 nM	apparent KD of MS2 coat protein [2]: 894 nM
AUAAUGUCAGGAUAUCAGUCGUACAGCGAUAGCUGUACGACUGAGAAGGGACAUGAGGAUCACCCAUGUGGUCA [E4/6-A4] (Eterna round: R97, puzzle: Exclusion 4)		13.3 nM	18.1 nM	
GUCAUCAAACAUGGGAUUAACAUGAGGAUCACCCAUGUUAACAAGUUUUUUGCUCGUCUUAUAAUAAGUUUGAUGAC [Antenna 10 - Jieux - Sensor, turn-off variant 1] (Eterna round: R97, puzzle: Sensor, turn-off variant 1)		7.6 nM	13 nM	
GCUCUGUGAGGAUAUAUAACGCAUUGGAUAGUGAAACUUAGACAUGAGGAUCACCCAUGUAGAAGGUACGGUAG [Eternabot (L2) Solution 76] (Eterna round: R97, puzzle: Exclusion 2)		77.8 nM	99 nM	
UUCCUGUCAGGAUAUGACUAGAUGCACGAAAGUGUGUUUACUUAGAAGGGACAUGAGGAUCACCCAUGUAGUCC [Bring Us a Shrubbery-17] (puzzle: Exclusion 4)	31.3 nM			
ACAUGAGGAUCACCCAUGUUUAUUGGGUACUAUACUAACAGCAAGGAUAUGCAAAUUUUUUUUACGCAGAAGGUGCAGGAACCC [JR_ExcNG3_Sub069] (Eterna round: R96, puzzle: Exclusion NG 3)		38.3 nM	52.8 nM	apparent KD of MS2 coat protein [2]: 33.1 nM
ACCUCACAUGAGGAUCACCCAUGUCAGGAUAUCUAUUAUUGCAGCAAUCCUGUCGCUGAGAGAAGGGACAUUAA [EX1 #27] (Eterna round: R97, puzzle: Exclusion 1)		32.2 nM	33 nM	
CAGUACUGAGGAUAUACAUGAGGAUCACCCAUGUGCACCAGCUAGGAAACUAGCAAAAGUAGAAGGCAGUACUG [828 mod 2 m9] (Eterna round: R97, puzzle: Exclusion 3)		112 nM	15.5 nM	
